Reference: paper PMC10536470, “Reducing the virulence of Pseudomonas aeruginosa by using multiple quorum-quenching enzymes” (Journal of Industrial Microbiology & Biotechnology, 2023)

Test system: CCCCCCCCCC(=O)CC(=O)N[C@H]1CCOC1=O
Experiment: purified protein
Assay type: biochemical, Chryseobacterium sp. StRB126
Details: bicine 2.5 mM pH 8.0, 50 mM NaCl, 0.2 mM ZnCl2, 0.5% DMSO, 30 °C, substrate 0.2-2 mM

## AidC (Chryseobacterium sp. StRB126)
  Km: 0.56 ± 0.01 mM
  kcat: 250 ± 18 s⁻¹
